Here are results for two molecules from PMC11066842, “Formation of Calprotectin Inhibits Amyloid Aggregation of S100A8 and S100A9 Proteins” (ACS Chemical Neuroscience, 2024).

Sequences and labels used below:
B1: S100A8 (calgranulin A) (natural protein)
chain: MLTELEKALNSIIDVYHKYSLIKGNFHAVYRDDLKKLLETECPQYIRKKGADVWFKELDINTDGAVNFQEFLILVIKMGVAAHKKSHEESHKE
notes: S100A8 (calgranulin A); construct His6-SUMO-S100A8 in pET28a, tag removed by SENP1; also called S100A8 subunit of calprotectin (CP); source: E. coli BL21(DE3), purified (Ni2+ Sepharose, SENP1 cleavage of His6-SUMO, second Ni2+ column, Superdex 75 SEC); not shown: His6, N-terminal, cleaved; SUMO, N-terminal, cleaved
B2: S100A9 (calgranulin B) (natural protein)
chain: TCKMSQLERNIETIINTFHQYSVKLGHPDTLNQGEFKELVRKDLQNFLKKENKNEKVIEHIMEDLDTNADKQLSFEEFIMLMARLTWASHEKMHEGDEGPGHHHKPGLGEGTP
notes: S100A9 (calgranulin B); construct His6-SUMO-S100A9 in pET28a, tag removed by SENP1; also called S100A9 subunit of calprotectin (CP); source: E. coli BL21(DE3), purified (Ni2+ Sepharose, SENP1 cleavage of His6-SUMO, second Ni2+ column, Superdex 75 SEC); not shown: His6, N-terminal, cleaved; SUMO, N-terminal, cleaved

In the data set “S100A9 (calgranulin B)” the target is B2. As to the kind of experiment: SEC; Tricorn 10/300 column with Superdex 75 prep grade, 50 mM HEPES pH 7.4, 1 mM EDTA, 1 mM TCEP, no calcium; CP formed from an equimolar mix of S100A8 and S100A9 by acid denaturation (pH 2.0-2.5), stepwise dialysis and anion exchange. Particulars: both partners purified. (SEC sorts molecules by how far they enter the pores of the column.)

Data set [1] concerns the molecule itself. As to the kind of experiment: dynamic light scattering; 100 uM S100A8, 100 uM S100A9, 50 uM CP; 50 mM HEPES pH 7.4; 8 °C; hydrodynamic radius compared with published radii of S100 dimers.

For the molecule B1, the binding result (with S100A9 (calgranulin B); in data set [1]) was “binds” each time.
Consider B2, for which the binding result in data set [1] was “binds”.
